This is an account of results in patent publication US20240101675A1 (BIOLOJIC DESIGN, published 2024).

Test [1] addresses T1, recombinant human OX40 tagged with histidine tag (hOX40-His) (human, UniProt P43489 29-216).
T1 construct: bought (Reprokine); also called hOX-His; not shown: histidine tag
T1 sequence (looked up): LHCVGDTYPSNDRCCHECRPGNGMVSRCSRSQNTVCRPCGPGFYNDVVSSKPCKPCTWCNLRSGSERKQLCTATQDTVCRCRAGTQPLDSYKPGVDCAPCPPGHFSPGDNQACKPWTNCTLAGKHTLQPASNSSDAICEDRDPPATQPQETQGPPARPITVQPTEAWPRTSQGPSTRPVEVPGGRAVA
Put plainly: yeast surface display scFv, flow cytometry, 90 nM hOX40-His.

The target in test [2] is T2, recombinant human IL-13 (rh-IL-13)-Fc (human, UniProt P35225 35-146, limits assumed).
T2 construct: used for yeast surface display labelling; not shown: Fc (detected with anti human Fc)
T2 sequence (P35225 35-146 limits assumed): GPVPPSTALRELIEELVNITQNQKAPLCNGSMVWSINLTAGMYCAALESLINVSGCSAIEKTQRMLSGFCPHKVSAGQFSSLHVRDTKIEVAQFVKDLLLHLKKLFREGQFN
The test can be described thus: yeast surface display scFv, flow cytometry, 10 nM rh-IL-13. (In general: In flow cytometry, cells or beads pass a laser one at a time.)

Test [3] deals with T3, recombinant human TSLP (hTSLP)-Fc (human, UniProt Q969D9 29-159, limits assumed).
T3 construct: used for yeast surface display labelling; also called rhTSLP; not shown: Fc
The test can be described thus: yeast surface display flow cytometry, 10 nM hTSLP-Fc; MFI normalized to expression and to the positive control.

Test [4] concerns the target T2, recombinant human IL-13 (rh-IL-13)-Fc. The test can be described thus: yeast surface display flow cytometry, 10 nM rh-IL-13-Fc; MFI normalized to expression and to the positive control.
Procedure: Isolated clones from the final sort were sequenced by extraction of plasmid DNA from the yeast clones using a Zymoprep kit (Zymo Research, USA) and the DNA was sequenced. […] Cells were washed and resuspended in ice-cold PBS 0.1% BSA buffer containing a fluorescent labeled secondary antibody as described above for 20 min and analyzed using a flow cytometer.

Where only a bound is given, the exact number is not on record here.

B1: 3212ACOXC14 (OX40 library) (scFv, V domains shown)
VH: QVQLVESGGGVVQPGRSLRLDCKASGIEFSNSGMHWVRQAPGKGLEWVAVIWYDGSKRYYADSVKGRFTISRDNSKNTLFLQMNSLRAEDTAVYYCATNDDYWGQGTLVTVSS
VL: EIVLTQSPATLSLSPGERATLSCRASQSVEHYLAWYQQKPGQAPRLLIYDASNRATGIPARFSGSGSGTDFTLTISSLEPEDFAVYYCQQYSNWPLTFGQGTKVEIK
notes: not shown: linker
For B1, in test [1], the binding result is given as “binds”.

B2: 3212ACOXC21 (OX40 library) (scFv, V domains shown)
VH: QVQLVESGGGVVQPGRSLRLDCKASGIEFSNSGMHWVRQAPGKGLEWVAVIWYDGSKRYYADSVKGRFTISRDNSKNTLFLQMNSLRAEDTAVYYCASNDDYWGQGTLVTVSS
VL: EIVLTQSPATLSLSPGERATLSCRASQSVDHYLAWYQQKPGQAPRLLIYDASNFATGIPARFSGSGSGTDFTLTISSLEPEDFAVYYCQQYSNWPLTFGQGTKVEIK
notes: not shown: linker
As for B2, in test [1], the binding result is reported as “binds”.

B3: 3212ACOXC10 (OX40 library) (scFv, V domains shown)
VH: QVQLVESGGGVVQPGRSLRLDCKASGIDFSNSGMHWVRQAPGKGLEWVAVIWYDGSKRLYADSVKGRFTISRDNSKNTLFLQMNSLRAEDTAVYYCASNDDYWGQGTLVTVSS
VL: EIVLTQSPATLSLSPGERATLSCRASQSVIHYLAWYQQKPGQAPRLLIYDASNRATGIPARFSGSGSGTDFTLTISSLEPEDFAVYYCQQYDNWPLTFGQGTKVEIK
notes: not shown: linker
For B3, the binding result in test [1] is “binds”.

B4: OX-Clone36 (OX40 library) (scFv, V domains shown)
VH: QVQLVESGGGVVQPGRSLRLDCKASGIDFSNSGMHWVRQAPGKGLEWVAVIWYDGSKRYYADSVKGRFTISRDNSKNTLFLQMNSLRAEDTAVYYCASNDDYWGQGTLVTVSS
VL: EIVLTQSPATLSLSPGERATLSCRASQSVIHYLAWYQQKPGQAPRLLIYDASNRATGIPARFSGSGSGTDFTLTISSLEPEDFAVYYCQQYDNWPLTFGQGTKVEIK
notes: not shown: linker
Consider B4, for which the binding result in test [1] is listed as “binds”.

B5: 3212ACOXC31 (OX40 library) (scFv, V domains shown)
VH: QVQLVESGGGVVQPGRSLRLDCKASGITFSNSGMHWVRQAPGKGLEWVAVIWYDGSKAYYADSVKGRFTISRDNSKNTLFLQMNSLRAEDTAVYYCATNDDYWGQGTLVTVSS
VL: EIVLTQSPATLSLSPGERATLSCRASQSVYHYLAWYQQKPGQAPRLLIYDAENRATGIPARFSGSGSGTDFTLTISSLEPEDFAVYYCQQYNDWPLTFGQGTKVEIK
notes: not shown: linker
Regarding B5, the binding result in test [1] is reported as “binds”.

B6: OX-Clone71 (OX40 library) (scFv, V domains shown)
VH: QVQLVESGGGVVQPGRSLRLDCKASGIDFSNSGMHWVRQAPGKGLEWVAVIWYDGSKRYYADSVKGRFTISRDNSKNTLFLQMNSLRAEDTAVYYCASNDDYWGQGTLVTVSS
VL: EIVLTQSPATLSLSPGERATLSCRASQSVEHYLAWYQQKPGQAPRLLIYDASNPATGIPARFSGSGSGTDFTLTISSLEPEDFAVYYCQQYSNWPLTFGQGTKVEIK
notes: not shown: linker
With B6, the binding result in test [1] was “binds”.

B7: C2 (yeast-displayed scFv clone) (scFv, V domains shown)
VH: QMQLVESGGGVVQPGRSLRLSCAASGFTFRTYGMHWVRQAPGKGLEWVAVIWYDGSNKHYADSVKGRFTITRDNSKNTLNLQMNSLRAEDTAVYYCARAPQWELTAEAFDIWGQGTMVTVSS
VL: SYVLTQPPSVSVAPGQTARITCGGNLIGSKLVHWYQQKPGQAPVLVVYDDSDRPSLIPERFSGSNSGNTATLTISRVEAGDEADYYCQVWDSSSDGVVFGGGTKLTVL
notes: also called Clone C2; C2-VH-L-VL; not shown: linker
Take B7: in test [2], the “relative affinity (normalized MFI against the positive control)” value was > 20 % of positive control.

B8: C6 (yeast-displayed scFv clone) (scFv, V domains shown)
VH: QMQLVESGGGVVQPGRSLRLSCAASGFTFRTYGMHWVRQAPGKGLEWVAVIWYDGSNKHYADSVKGRFTITRDNSKNTLNLQMNSLRAEDTAVYYCARAPQWMLVAEAFDLWGQGTMVTVSS
VL: SYVLTQPPSVSVAPGQTARITCGGNLIGSKLVHWYQQKPGQAPVLVVYDDSDRPSRIPERFSGSNSGNTATLTISRVEAGDEADYYCQVWDSSSDHVVFGGGTKLTVL
notes: also called Clone C6; C6-VH-L-VL; not shown: linker
Consider B8, for which the “relative affinity (normalized MFI against the positive control)” value in test [2] is > 20 % of positive control.

B9: C40 (yeast-displayed scFv clone) (scFv, V domains shown)
VH: QMQLVESGGGVVQPGRSLRLSCAASGFTFRTYGMHWVRQAPGKGLEWVAVIWYDGSNKHYADSVKGRFTITRDNSKNTLNLQMNSLRAEDTAVYYCARSPQWEWVHEAFDLWGQGTMVTVSS
VL: SYVLTQPPSVSVAPGQTARITCGGNNIGSKLVHWYQQKPGQAPVLVVYDDSDRPSRIPERFSGSNSGNTATLTISRVEAGDEADYYCQVWDTSSDGVVFGGGTKLTVL
notes: also called C40-VH-L-VL; not shown: linker
On to B9, for which the binding result in test [3] is recorded as “binds”. Further, the “relative affinity (normalized MFI against the positive control)” value in test [2] was > 20 % of positive control.

B10: C37 (scFv, V domains shown)
VH: QMQLVESGGGVVQPGRSLRLSCAASGFTFRTYGMHWVRQAPGKGLEWVAVIWYDGSNKHYADSVKGRFTITRDNSKNTLNLQMNSLRAEDTAVYYCARAPQWELVAEAFDMWGQGTMVTVSS
VL: SYVLTQPPSVSVAPGQTARITCGGNLIGSKLVHWYQQKPGQAPVLVVYDDSDRPSRIPERFSGSNSGNTATLTISRVEAGDEADYYCQVWDSSSDHVVFGGGTKLTVL
notes: also called C37-VH-L-VL
As for B10, the binding result in test [4] and in test [3] was “binds” in each case.

B11: C26 (scFv, V domains shown)
VH: QMQLVESGGGVVQPGRSLRLSCAASGFTFRTYGMHWVRQAPGKGLEWVAVIWYDGSNKHYADSVKGRFTITRDNSKNTLNLQMNSLRAEDTAVYYCARAPQWELTAEAFDLWGQGTMVTVSS
VL: SYVLTQPPSVSVAPGQTARITCGGNIIGSKLVHWYQQKPGQAPVLVVYDDGDRPSGIPERFSGSNSGNTATLTISRVEAGDEADYYCQVWDTSSDHVVFGGGTKLTVL
notes: also called C26-VH-L-VL
For B11, the binding result in test [4] and in test [3] was “binds” each time.

B12: C17 (scFv, V domains shown)
VH: QMQLVESGGGVVQPGRSLRLSCAASGFTFRTYGMHWVRQAPGKGLEWVAVIWYDGSNKHYADSVKGRFTITRDNSKNTLNLQMNSLRAEDTAVYYCARAPQWELTSEAFDLWGQGTMVTVSS
VL: SYVLTQPPSVSVAPGQTARITCGGNLIGSKLVHWYQQKPGQAPVLVVYDDSDRPSAIPERFSGSNSGNTATLTISRVEAGDEADYYCQVWDTSSDHVVFGGGTKLTVL
notes: also called C17-VH-L-VL
With B12, the binding result in test [3] is “binds”.

B13: C39 (scFv, V domains shown)
VH: QMQLVESGGGVVQPGRSLRLSCAASGFTFRTYGMHWVRQAPGKGLEWVAVIWYDGSNKHYADSVKGRFTITRDNSKNTLNLQMNSLRAEDTAVYYCARAPQWELTAEAFDLWGQGTMVTVSS
VL: SYVLTQPPSVSVAPGQTARITCGGNLLGSKLVHWYQQKPGQAPVLVVYDDSDRPSWIPERFSGSNSGNTATLTISRVEAGDEADYYCQVWDTSSDHVVFGGGTKLTVL
notes: also called C39-VH-L-VL
For the molecule B13, the binding result in test [4] and in test [3] was “binds” throughout.

B14: C15 (scFv, V domains shown)
VH: QMQLVESGGGVVQPGRSLRLSCAASGFTFRTYGMHWVRQAPGKGLEWVAVIWYDGSNKHYADSVKGRFTITRDNSKNTLNLQMNSLRAEDTAVYYCARAPQWELVAEAFDLWGQGTMVTVSS
VL: SYVLTQPPSVSVAPGQTARITCGGNLIGSKLVHWYQQKPGQAPVLVVYDDGDRPSWIPERFSGSNSGNTATLTISRVEAGDEADYYCQVWDSGSDGVVFGGGTKLTVL
notes: also called C15-VH-L-VL
With B14, in test [3], the binding result is given as “binds”.

B15: C9 (yeast-displayed scFv clone) (scFv, V domains shown)
VH: QMQLVESGGGVVQPGRSLRLSCAASGFTFRTYGMHWVRQAPGKGLEWVAVIWYDGSNKHYADSVKGRFTITRDNSKNTLNLQMNSLRAEDTAVYYCARSPQWEWVHEAFDLWGQGTMVTVSS
VL: SYVLTQPPSVSVAPGQTARITCGGNLIGSKLVHWYQQKPGQAPVLVVYDDGDRPSWIPERFSGSNSGNTATLTISRVEAGDEADYYCQVWDSSSDGVVFGGGTKLTVL
notes: also called Clone C9; C9-VH-L-VL; not shown: linker
As for B15, the “relative affinity (normalized MFI against the positive control)” value in test [2] was > 20 % of positive control.

B16: C45 (scFv, V domains shown)
VH: QMQLVESGGGVVQPGRSLRLSCAASGFTFRTYGMHWVRQAPGKGLEWVAVIWYDGSNKHYADSVKGRFTITRDNSKNTLNLQMNSLRAEDTAVYYCARAPQWELTSEAFDLWGQGTMVTVSS
VL: SYVLTQPPSVSVAPGQTARITCGGNLIGSKLVHWYQQKPGQAPVLVVYDDSDRPSEIPERFSGSNSGNTATLTISRVEAGDEADYYCQVWDSSSDGVVFGGGTKLTVL
notes: also called C45-VH-L-VL
For the molecule B16, the binding result in test [3] is on record as “binds”.

B17: C43 (scFv, V domains shown)
VH: QMQLVESGGGVVQPGRSLRLSCAASGFTFRTYGMHWVRQAPGKGLEWVAVIWYDGSNKHYADSVKGRFTITRDNSKNTLNLQMNSLRAEDTAVYYCARAPQWQLVAEAFDIWGQGTMVTVSS
VL: SYVLTQPPSVSVAPGQTARITCGGNLIGSKLVHWYQQKPGQAPVLVVYDDSDRPSAIPERFSGSNSGNTATLTISRVEAGDEADYYCQVWDTSSDGVVFGGGTKLTVL
notes: also called C43-VH-L-VL
On to B17, for which the binding result in test [4] and in test [3] was “binds” in each case.

B18: C13 (scFv, V domains shown)
VH: QMQLVESGGGVVQPGRSLRLSCAASGFTFRTYGMHWVRQAPGKGLEWVAVIWYDGSNKHYADSVKGRFTITRDNSKNTLNLQMNSLRAEDTAVYYCARAPQWELVAEAFDLWGQGTMVTVSS
VL: SYVLTQPPSVSVAPGQTARITCGGNLLGSKLVHWYQQKPGQAPVLVVYDDGDRPSLIPERFSGSNSGNTATLTISRVEAGDEADYYCQVWDTSSDHVVFGGGTKLTVL
notes: also called C13-VH-L-VL
B18: the binding result in test [3] is reported as “binds”.
